Reference: US20070031832A1

biological target: anti-Der p 1 monoclonal antibody 2C7; assay: T7-DELFIA, comparison phage on 2C7-coated wells, time resolved fluorometry

T7wt showed a TRF of 500 TRF.

biological target: anti-Der p 1 monoclonal antibody 2C7; assay: T7-DELFIA, 50 µl phage lysate on 2C7-coated wells, time resolved fluorometry

Compared with GDPNSRGKSREYLS (peptide, not shown: large carriers) [2c7pan14], GDPNSASGTA (peptide, not shown: large carriers) [2c7pan9] is higher in TRF: 1800 TRF for the first, 17000 TRF for the second.

Going from GDPRTHR (peptide, not shown: large carriers) [2c7pan26] to GDPNSSTSPR (peptide, not shown: large carriers) [2c7pan8], the TRF falls from 8500 TRF to 1900 TRF.

With GDPNSSSVDKLGYWRVTESSNE (peptide, not shown: large carriers) [2c7pan42] the TRF was 64000 TRF.
